Measurements: patent US20100209490A1

How the values were obtained:
[1] = target: human DR5 (death receptor 5) (human) (UniProt O14763); assay: cell-based or functional assay
[2] = target: human Fas (human) (UniProt P25445); assay: cell-based or functional assay
human Fas (human), sequence (P25445 26-335): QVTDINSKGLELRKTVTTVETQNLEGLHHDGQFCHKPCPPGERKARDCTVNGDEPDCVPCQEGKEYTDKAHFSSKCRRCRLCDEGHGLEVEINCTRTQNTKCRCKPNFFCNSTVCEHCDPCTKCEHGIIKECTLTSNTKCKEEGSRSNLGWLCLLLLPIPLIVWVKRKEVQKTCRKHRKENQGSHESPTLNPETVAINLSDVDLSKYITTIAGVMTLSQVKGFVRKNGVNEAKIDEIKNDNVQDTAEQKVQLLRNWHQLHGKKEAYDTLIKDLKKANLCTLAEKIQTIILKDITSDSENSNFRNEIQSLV

Mouse Anti-hDR5 Antibody (MAB631)
EC50 (50% cell viability), Jurkat cells, immunoliposome of Example 36 [1]: 0.069 ng/mL | EC50 (50% cell viability), Jurkat cells, immunoliposome of Example 37 [1]: 0.089 ng/mL | EC50 (50% cell viability), Jurkat cells, secondary antibody-cross-linked MAB631 [1]: 13.4 ng/mL | EC50 Ab/IL, Jurkat cells, cross-linked MAB631 vs immunoliposome of Example 36 [1]: 194 | EC50 Ab/IL, Jurkat cells, cross-linked MAB631 vs immunoliposome of Example 37 [1]: 150 | cell viability at 0.1 ng/ml, Jurkat cells, immunoliposome of Example 36 (% cell viability) [1]: < 50 | cell viability at 0.1 ng/ml, Jurkat cells, immunoliposome of Example 37 (% cell viability) [1]: < 50 | cell viability at 10 or 1000 ng/ml, Jurkat cells, immunoliposome of Example 36 (% cell viability) [1]: < 5 | cell viability at 10 or 1000 ng/ml, Jurkat cells, immunoliposome of Example 37 (% cell viability) [1]: < 5

Mouse Anti-hDR5 Antibody (MAB6311)
EC50 (50% cell viability), Jurkat cells, immunoliposome of Example 38 [1]: 0.075 ng/mL | EC50 (50% cell viability), Jurkat cells, immunoliposome of Example 39 [1]: 0.083 ng/mL | EC50 (50% cell viability), Jurkat cells, secondary antibody-cross-linked MAB6311 [1]: 2.39 ng/mL | EC50 Ab/IL, Jurkat cells, cross-linked MAB6311 vs immunoliposome of Example 38 [1]: 31.9 | EC50 Ab/IL, Jurkat cells, cross-linked MAB6311 vs immunoliposome of Example 39 [1]: 28.8 | cell viability at 0.1 ng/ml, Jurkat cells, immunoliposome of Example 38 (% cell viability) [1]: < 40 | cell viability at 0.1 ng/ml, Jurkat cells, immunoliposome of Example 39 (% cell viability) [1]: < 40 | cell viability at 10 or 1000 ng/ml, Jurkat cells, immunoliposome of Example 38 (% cell viability) [1]: < 5 | cell viability at 10 or 1000 ng/ml, Jurkat cells, immunoliposome of Example 39 (% cell viability) [1]: < 5

Mouse Anti-hFas Antibody (DX2)
cell viability at 500 or 5000 ng/ml, WR19L12a cells, immunoliposome of Example 40 (% cell viability) [2]: < 20
